Test results from article PMC5587760, “Halotolerant aminopeptidase M29 from Mesorhizobium SEMIA 3007 with biotechnological potential and its impact on biofilm synthesis” (Scientific Reports, 2017).

Legend:
[1] = system: CC(C)C[C@H](N)C(=O)Nc1ccc([N+](=O)[O-])cc1; assay: purified protein; details: 3 mM Co2+, pH 8.5, 40 °C (abstract: 45 °C optimum)
[2] = biological target: MesoAmp, aminopeptidase M29 (Aminopeptidase T) from Mesorhizobium SEMIA 3007 (Mesorhizobium SEMIA 3007); assay: SEC; Hiload16/600 Superdex 200, 100 mM Tris-HCl pH 8.0, 200 mM NaCl, 5% (w/v) glycerol, 0.5 mL/min; native mass estimated from a calibration curve of standard proteins and compared with the mass on SDS-PAGE

| stoichiometry N [2] | Substance | Km [1] [µM] | kcat [1] [s⁻¹] |
| --- | --- | --- | --- |
|  | MesoAmp (Mesorhizobium sp. SEMIA 3007) | 236.4 ± 18.2 | 712.1 ± 88.12 |
| 2 | MesoAmp, aminopeptidase M29 (Aminopeptidase T) from Mesorhizobium SEMIA 3007 (enzyme) |  |  |
